Assays:
human HCT116 tumor cells = assay: HCT116 xenograft tumor growth, REGN421 with irinotecan (Example 6); type: in vivo, mouse; conditions: REGN421 2 mg/kg sc (6 mg/kg total dose)
Method: Each mouse was implanted subcutaneously (sc) with 5×10^6 human HCT116 tumor cells. After the tumors were established in the mice (tumor size of ˜150 mm^3, 15 days after implantation), tumors were measured and randomized. The mice were then treated with hFc, REGN421, irinotecan or combination of REGN421 and irinotecan. A total of 30 mice were divided into 6 groups (n=5 per cohort). The first group was treated sc with hFc at 2 mg/kg; the second group was treated sc with REGN421 at 2 mg/kg; the third and fourth groups were treated ip with irinotecan at 7.5 and 25 mg/kg, respectively; the fifth group was treated sc with REGN421 at 2 mg/kg and ip with irinotecan at 7.5 mg/kg; and the sixth group was treated sc with REGN421 at 2 mg/kg and ip with irinotecan at 25 mg/kg. REGN421 was administered every 3-4 days starting on day 15 and mice received three doses total. Irinotecan was administered every 3-4 days starting on day 15 and mice received three doses total.
(§1) To assess the effects of REGN421 and irinotecan as single agents or in combination treatments, the changes in tumor size (volume) are measured, starting three days before the initial REGN421 treatment, and then on the day of each agent treatment (days 15, 19, 22) and thereafter every 3-4 days until tumors reach ˜600 mm^3 in size. In vivo tumor size is calculated using the formula (length×width^2)/2.

[1] = tested on: human HCT116 tumor cells (CRC); assay: HCT116 colorectal xenograft tumor growth, REGN421 with 5-FU (Example 5); type: in vivo, mouse; conditions: REGN421 2 mg/kg sc (6 mg/kg total dose)
Method: The effect of anti-Dll4 Ab (REGN421) in combination with 5-FU on tumor growth was evaluated on tumors implanted in humanized Dll4 SCID mice. Each mouse was implanted subcutaneously (sc) with 5×10^6 human HCT116 tumor cells (CRC). After the tumors were established in the mice (tumor size of ˜150 mm^3, 22 days after implantation), tumors were measured and randomized. The mice were then treated with hFc, REGN421, 5-FU or combination of REGN421 and 5-FU. A total of 30 mice were divided into 6 groups (n=5 per cohort). The first group was treated sc with hFc at 2 mg/kg; the second group was treated sc with REGN421 at 2 mg/kg; the third and fourth groups were treated ip with 5-FU at 15 and 25 mg/kg, respectively; the fifth group was treated sc with REGN421 at 2 mg/kg and ip with 5-FU at 15 mg/kg; and the sixth group was treated sc with REGN421 at 2 mg/kg and ip with 5-FU at 25 mg/kg. REGN421 was administered every 3-4 days starting on day 22 and mice received three doses total. 5-FU was administered every 3-4 days starting on day 22 and mice received three doses total.
as §1, with “5-FU” for “irinotecan”, “combination,” for “combination treatments,”, “were” for “are”, “beginning” for “starting”, “22, 26, 29)” for “15, 19, 22)”, “(length×width^2)/2 (FIG. 3 and Table 5).” for “(length×width^2)/2.”

B1: REGN421: anti-hDll4 antibody comprising HCVR/LCVR combination of SEQ ID NO:116/118 (antibody, V domains shown)
VH: QVQLVESGGGVVQPGRSLRLSCAASGFTFSSYGMHWVRQAPGKGLEWVSFLWYDGTNKNYVESVKGRFTISRDNSKNMLYLEMNSLRAEDTAVYYCARDHDFRSGYEGWFDPWGQGTLVTVSS
VL: EIVLTQSPATLSLSPGERATLSCRASQSVSSYLAWYQQKPGQAPRLLIYDASNRATGIPARFSGSGSGTDFTLTISSLEPEDFAVYYCQHRSNWPPTFGGGTKVEIK
TGD (human HCT116 tumor cells): 9 days | TGD [1]: 6 days
